Source: the supplement of paper PMC9170038

System: MS2 coat protein
Experiment: apparent KD of MS2 coat protein; designed switch direction (-1 OFF switch, 1 ON switch): -1; higher = weaker reporter binding
How it was run: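 Designed RNA switches sharing common flanks were transcribed on Illumina chips by stalled E. coli RNA polymerase. They were titrated with SNAP-549-labelled MS2 coat protein, from 0.7 or 1.5 nM doubling to 3 µM, in Tris-HCl pH 7.5 buffer with KCl, MgCl2, BSA, DTT, tRNA and Tween-20. Titrations ran without input, with 200 uM small-molecule ligand, or with an oligonucleotide input. The apparent KD of each design is the median over its clusters, after curve-fitting of normalised cluster fluorescence.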

[1] = input ligand: microRNA oligo, concentration not stated
[2] = Eterna round: R95, input ligand: microRNA oligo, concentration not stated
[3] = Eterna round: R95, input ligand: FMN 200 uM
[4] = Eterna round: R95, input ligand: none

Which results are given for “AGAGUGCUGCGAGGAUAUACAUGAGGAUCACCCAUGUGGAUCUGUGAGGCUUUGCCUCACAGGAUGUAGAAGGCGCAGUACUCA [Mat - Exclusion NG 2 - Mod of JL - D48] (Eterna round: R96, puzzle: Exclusion NG 2)”?
apparent KD of MS2 coat protein (input ligand: FMN 200 uM): 178 nM; apparent KD of MS2 coat protein [1]: 18.2 nM; apparent KD of MS2 coat protein (input ligand: none): 25.4 nM

Which “apparent KD of MS2 coat protein” value (input ligand: FMN 200 uM) does the source give for “CUGUUACAUGAGGAUCACCCAUGUGAGGAUAUGGUUCGGUACUGUCCUGUCGCGUACUCCAGAAGGCACGUGUU [1st #36] (Eterna round: R97, puzzle: Exclusion 1)” here?
The value was 46.5 nM.

And the “apparent KD of MS2 coat protein” value (input ligand: none)?
Its value is 36.5 nM.

With “AGGUGUAGAGGAUAUUUAUACUCCCACAUGAGGAUCACCCAUGUCCUGGUCACCAAGGACGGAGAAGGCUACACCA [Omei Ex5 D23] (Eterna round: R97, puzzle: Exclusion 5)” as the sequence, how does the “apparent KD of MS2 coat protein” value (input ligand: FMN 200 uM) read?
Its value is 48.5 nM.

What about the “apparent KD of MS2 coat protein” value (input ligand: none) of the same sequence?
Its value is 41.8 nM.

Which “apparent KD of MS2 coat protein” value [2] does the source give for “GUGAAGUAAGGAUAUACAUGAGGAUCACCCAUGUGUGGGAAGGUGAUGGGAGUAGGUAGUAGAAGGUACGAGGA [JR_Exclu3_Sub065] (puzzle: Exclusion 3)” here?
The value was 108 nM.

For “UAAGCUCUGUCAGGAUAUCCCUGUAAACGCAACGGAGAAGGGACAUGAGGAUCACCCAUGUGCGGGCCCAACGCGCUUGGGUCC [Gelaisve] (Eterna round: R96, puzzle: Exclusion NG 1)”, which “apparent KD of MS2 coat protein” value (input ligand: FMN 200 uM) is on record?
Its value is 56.6 nM.

What about the “apparent KD of MS2 coat protein” value [1] of the same sequence?
Its value is 20.6 nM.

What about the “apparent KD of MS2 coat protein” value (input ligand: none) of the same sequence?
Its value is 26.3 nM.

“AUGUUAUUCUGAGGAUAUUGUUUAUUCUUCUCACAUGAGGAUCACCCAUGUUUCCGUGUUUACCGCAAGAAGGCAGUUUUGUUU [JR_ExcNG2_Sub027] (Eterna round: R96, puzzle: Exclusion NG 2)” was tested. Which “apparent KD of MS2 coat protein” value [1] did it give?
The value was 22.1 nM.

What does the source list for “AUAGGAGUAGGAUAUUCAGUUCGACACAUGAGGAUCACCCAUGUCGCUGUGGCCGGGCACGGAGAAGGAUUGUUGU [Eternabot (L1) Solution 15] (Eterna round: R97, puzzle: Exclusion 5)”?
apparent KD of MS2 coat protein (input ligand: FMN 200 uM): 39.1 nM; apparent KD of MS2 coat protein (input ligand: none): 36.3 nM

For “CGUCCGAACUCAGGAUAUCAACUUAACAACAUGAGGAUCACCCAUGUGGCCUGUAAAACCCGAGAUGAGAAGGGAGGGCGGGCC [Usceondiat] (Eterna round: R96, puzzle: Exclusion NG 2)”, which “apparent KD of MS2 coat protein” value (input ligand: FMN 200 uM) is on record?
Its value is 13.6 nM.

And the “apparent KD of MS2 coat protein” value [1]?
The value was 15.4 nM.

And the “apparent KD of MS2 coat protein” value (input ligand: none)?
Its value is 19.7 nM.

Which results are given for “CCCAGUUAGGAAGGAUAUUGUACAUGAGGAUCACCCAUGUAAUAAAUGAGGAUCACGGAUGUAGACAAGAAGGUCCGGAUAGGC [Ostracism 8 - Jieux - Exclusion NG 2] (Eterna round: R96, puzzle: Exclusion NG 2)”?
apparent KD of MS2 coat protein (input ligand: FMN 200 uM): 104 nM; apparent KD of MS2 coat protein [1]: 41.5 nM; apparent KD of MS2 coat protein (input ligand: none): 55.5 nM

Which “apparent KD of MS2 coat protein” value [3] does the source give for “CUCCUCAUGGCGCCUAAACACAUGAGGAUCACCCAUGUAUAGGCUUUUUGCCGUCUUAUAAUAAAACCGAGGAUGCG [Rianza] (puzzle: Sensor v3, turn-off variant 1)” here?
Its value is 28.7 nM.

What about the “apparent KD of MS2 coat protein” value [2] of the same sequence?
Its value is 276 nM.

And the “apparent KD of MS2 coat protein” value [4]?
Its value is 21.9 nM.

Which “apparent KD of MS2 coat protein” value (input ligand: FMN 200 uM) does the source give for “AAGACACAUGAGGAUCACCCAUGUGAGGAUAUUCGAUGCUGAGCGUAAGCUUAGUAUCGGAGAAGGCACAAAGG [Salishxclusion 7 - Jieux - Exclusion 1] (Eterna round: R97, puzzle: Exclusion 1)” here?
Its value is 119 nM.

What about the “apparent KD of MS2 coat protein” value (input ligand: none) of the same sequence?
Its value is 39.8 nM.

“AGAUGGCGAGGAUAUACAUGAGGAUCACCCAUGUGAGAGAAUAAAGUGAGGAAGAAAAGUAGAAGGCGCUGUCA [Mat - Exclusion 3 - Mod of Salish D10] (puzzle: Exclusion 3)” was tested. Which “apparent KD of MS2 coat protein” value [2] did it give?
The value was 43.3 nM.

With “ACGUGAUAUCUGUCGGUGGACAUGAGGAUCACCCAUGUAAGCUUUUUGCUCAUCUUAUAACCCGGUGACAGACCUUC [Zaisbela] (puzzle: Sensor v3, turn-off variant 1)” as the sequence, how does the “apparent KD of MS2 coat protein” value [3] read?
The value was 26.8 nM.

What about the “apparent KD of MS2 coat protein” value [2] of the same sequence?
The value was 413 nM.

What about the “apparent KD of MS2 coat protein” value [4] of the same sequence?
Its value is 29.5 nM.

What does the source list for “UAAAGUAUAUAGGAUAUCUAGCUGGAUACAGCUAGAGAAGGAUGUACAUGAGGAUCACCCAUGUAAAUCAGUGA [Ex6/14-A3] (Eterna round: R97, puzzle: Exclusion 6)”?
apparent KD of MS2 coat protein (input ligand: FMN 200 uM): 33.9 nM; apparent KD of MS2 coat protein (input ligand: none): 16.5 nM

What does the source list for “GGAGGACGAGCAGGAUAUUUUUACAUGAGGAUCACCCAUGUGUACUCAGGGUAAUCCUCCGCCGAAAAGAAGGGUUCGGAAGAA [JL ViennaUCT Socedi mod 4] (Eterna round: R96, puzzle: Exclusion NG 2)”?
apparent KD of MS2 coat protein (input ligand: FMN 200 uM): 124 nM; apparent KD of MS2 coat protein [1]: 41.6 nM; apparent KD of MS2 coat protein (input ligand: none): 63.2 nM

What does the source list for “AAUAACAAGCAAGAUCCUAACAUGAGGAUCACCCAUGUGCUCGUCUUAUAAAGUACUAUCACGAAAGUGAUAGUACA [Sensor 3, v1 - 45] (puzzle: Sensor v3, turn-off variant 1)”?
apparent KD of MS2 coat protein [3]: 470 nM; apparent KD of MS2 coat protein [2]: 306 nM; apparent KD of MS2 coat protein [4]: 420 nM

“ACUCAACAGUAGGAUAUCAUCAAACUAUUGUGAUGAGAAGGACUGACAUGAGGAUCACCCAUGUUAACGUGAUG [Mod of Brourd 2 - Jieux - Exclusion 6] (Eterna round: R97, puzzle: Exclusion 6)” was tested. Which “apparent KD of MS2 coat protein” value (input ligand: FMN 200 uM) did it give?
Its value is 32.1 nM.

And the “apparent KD of MS2 coat protein” value (input ligand: none)?
Its value is 21.5 nM.

With “GGAUCGAGUGUGAGGAUAUGCUGGUCCUUGGAUCAGCAGAAGGCACAUGAGGAUCACCCAUGUGAAGACGGUCC [Copy of R95 JL bmx4 3.16] (Eterna round: R97, puzzle: Brourd's mod of Exclusion 4)” as the sequence, how does the “apparent KD of MS2 coat protein” value (input ligand: FMN 200 uM) read?
The value was 288 nM.

What about the “apparent KD of MS2 coat protein” value (input ligand: none) of the same sequence?
Its value is 38.6 nM.

With “ACAUUGAUUGUGAGGAUAUCGAUGUGAUGGUAUGUCGAGAAGGCACAUGAGGAUCACCCAUGUGGGUUGUAGCA [JR_BMEx4_Sub035] (Eterna round: R97, puzzle: Brourd's mod of Exclusion 4)” as the sequence, how does the “apparent KD of MS2 coat protein” value (input ligand: FMN 200 uM) read?
The value was 291 nM.

What about the “apparent KD of MS2 coat protein” value (input ligand: none) of the same sequence?
Its value is 95.2 nM.

What does the source list for “AUAAAUCAUGUAGGAUAUGCGUGGCGAAGCUAUGCAGAAGGACAUGAGGAUCACCCAUGUGCUUCCGUCUGCGUACAGACGGAA [Mat - Exclusion NG 1 - Mod of JL - D35] (Eterna round: R96, puzzle: Exclusion NG 1)”?
apparent KD of MS2 coat protein (input ligand: FMN 200 uM): 64.8 nM; apparent KD of MS2 coat protein [1]: 228 nM; apparent KD of MS2 coat protein (input ligand: none): 190 nM

How did the “apparent KD of MS2 coat protein” value [2] turn out when “GAUCCACAUGAGGAUCACCCAUGUGAGGAUAUGAUACUAUGUACUUCGGUACAUAGUAUCAGAAGGCACAGGUC [Ex1-3: 56] (puzzle: Exclusion 1)” was run?
Its value is 50.6 nM.

What does the source list for “AUCAACGUGUUAGGAUAUAAGCCUAAAAGAGACUUAGAAGGGACAUGAGGAUCACCCAUGUCGGGCGCCCAAGCUAUGCGACCU [Eternabot solution 4] (Eterna round: R96, puzzle: Exclusion NG 1)”?
apparent KD of MS2 coat protein (input ligand: FMN 200 uM): 32.8 nM; apparent KD of MS2 coat protein [1]: 17.4 nM; apparent KD of MS2 coat protein (input ligand: none): 26.3 nM

With “CUUCGUAUAGAGGAUAUAGGAUACUGCGGUGUCCUAGAAGGCUGUACAUGAGGAUCACCCAUGUACUUCAGAUC [Exclusion 6 - B - 14:c] (puzzle: Exclusion 6)” as the sequence, how does the “apparent KD of MS2 coat protein” value [2] read?
Its value is 12 nM.

“UCCAGCAUACGGAGAUCCAACAUGAGGAUCACCCAUGUCUGGAAAGCUUUUUGCUUGUCUUAUCCUCCUCUGUGUGC [Design #6] (Eterna round: R97, puzzle: Sensor, turn-off variant 1)” was tested. Which “apparent KD of MS2 coat protein” value (input ligand: FMN 200 uM) did it give?
The value was 22.5 nM.

What about the “apparent KD of MS2 coat protein” value (input ligand: none) of the same sequence?
The value was 22.9 nM.

Which results are given for “CAAUAUUACUGAGGAUAUCCUAUUGUAUUUCAGGGAGAAGGCAGACUCAACAUGAGGAUCACCCAUGUAAGACGGGUACUAGAU [Ex NG1 #18] (Eterna round: R96, puzzle: Exclusion NG 1)”?
apparent KD of MS2 coat protein (input ligand: FMN 200 uM): 97 nM; apparent KD of MS2 coat protein [1]: 77.4 nM; apparent KD of MS2 coat protein (input ligand: none): 98.2 nM
